We go through 6 molecules from patent publication US20230025129A1 (KYMAB, published 2023).

Experiment in all cases: cell-based or functional assay
For assay [1], the target named is T1, human matriptase-2 ECD protein his tag (human, UniProt Q8IU80 78-811).
T1 sequence: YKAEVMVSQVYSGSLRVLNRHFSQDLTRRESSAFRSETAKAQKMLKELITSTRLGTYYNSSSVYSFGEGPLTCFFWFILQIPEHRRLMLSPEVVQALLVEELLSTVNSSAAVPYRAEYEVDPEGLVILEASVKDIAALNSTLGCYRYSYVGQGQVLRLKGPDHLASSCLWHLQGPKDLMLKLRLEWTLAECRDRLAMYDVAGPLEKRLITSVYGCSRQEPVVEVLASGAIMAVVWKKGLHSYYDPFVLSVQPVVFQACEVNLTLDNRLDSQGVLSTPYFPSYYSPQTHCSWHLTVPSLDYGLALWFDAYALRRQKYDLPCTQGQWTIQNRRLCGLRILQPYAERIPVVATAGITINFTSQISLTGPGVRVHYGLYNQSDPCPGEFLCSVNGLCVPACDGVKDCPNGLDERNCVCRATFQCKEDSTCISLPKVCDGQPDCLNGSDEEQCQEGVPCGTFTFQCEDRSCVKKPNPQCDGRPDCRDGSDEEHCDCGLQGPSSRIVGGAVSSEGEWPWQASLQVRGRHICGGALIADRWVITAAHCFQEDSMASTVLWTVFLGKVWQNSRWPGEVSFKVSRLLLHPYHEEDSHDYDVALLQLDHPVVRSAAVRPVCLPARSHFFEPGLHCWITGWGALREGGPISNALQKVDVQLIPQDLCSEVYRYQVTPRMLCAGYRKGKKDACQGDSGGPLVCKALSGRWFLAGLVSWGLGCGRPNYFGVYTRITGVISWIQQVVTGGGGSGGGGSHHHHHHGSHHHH

Assay [2] deals with T2, mouse matriptase-2 ECD protein his tag (mouse, UniProt Q9DBI0 80-811).
T2 sequence: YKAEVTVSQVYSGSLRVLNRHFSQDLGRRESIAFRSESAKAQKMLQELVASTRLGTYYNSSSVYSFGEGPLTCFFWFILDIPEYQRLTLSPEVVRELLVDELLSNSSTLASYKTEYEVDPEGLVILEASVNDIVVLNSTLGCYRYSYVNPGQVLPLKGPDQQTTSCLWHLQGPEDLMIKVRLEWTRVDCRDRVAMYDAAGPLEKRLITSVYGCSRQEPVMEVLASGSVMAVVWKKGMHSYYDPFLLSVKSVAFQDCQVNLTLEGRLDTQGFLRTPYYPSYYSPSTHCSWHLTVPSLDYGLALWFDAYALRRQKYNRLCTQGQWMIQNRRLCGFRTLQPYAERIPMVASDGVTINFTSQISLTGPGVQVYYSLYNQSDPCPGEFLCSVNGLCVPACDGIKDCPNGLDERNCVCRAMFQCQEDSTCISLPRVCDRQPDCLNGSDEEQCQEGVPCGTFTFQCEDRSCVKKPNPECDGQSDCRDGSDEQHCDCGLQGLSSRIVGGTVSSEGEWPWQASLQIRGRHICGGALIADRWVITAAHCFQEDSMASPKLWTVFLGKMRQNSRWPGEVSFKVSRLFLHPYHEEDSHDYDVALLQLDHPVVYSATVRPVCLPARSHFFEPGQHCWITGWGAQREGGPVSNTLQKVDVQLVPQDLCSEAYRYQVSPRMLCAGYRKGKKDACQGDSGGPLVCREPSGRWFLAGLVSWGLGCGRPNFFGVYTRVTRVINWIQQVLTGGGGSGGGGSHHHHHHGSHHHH

For assay [3], the target named is T1, human matriptase-2 ECD protein his tag. The source holds these as a separate data set.
Assay [4] has as its target T2, mouse matriptase-2 ECD protein his tag. This is another data set of the same source.
For assay [5], the target named is T3, human MTP-2 expressed on HEK293 cells (human, UniProt Q8IU80 1-811).
T3 sequence: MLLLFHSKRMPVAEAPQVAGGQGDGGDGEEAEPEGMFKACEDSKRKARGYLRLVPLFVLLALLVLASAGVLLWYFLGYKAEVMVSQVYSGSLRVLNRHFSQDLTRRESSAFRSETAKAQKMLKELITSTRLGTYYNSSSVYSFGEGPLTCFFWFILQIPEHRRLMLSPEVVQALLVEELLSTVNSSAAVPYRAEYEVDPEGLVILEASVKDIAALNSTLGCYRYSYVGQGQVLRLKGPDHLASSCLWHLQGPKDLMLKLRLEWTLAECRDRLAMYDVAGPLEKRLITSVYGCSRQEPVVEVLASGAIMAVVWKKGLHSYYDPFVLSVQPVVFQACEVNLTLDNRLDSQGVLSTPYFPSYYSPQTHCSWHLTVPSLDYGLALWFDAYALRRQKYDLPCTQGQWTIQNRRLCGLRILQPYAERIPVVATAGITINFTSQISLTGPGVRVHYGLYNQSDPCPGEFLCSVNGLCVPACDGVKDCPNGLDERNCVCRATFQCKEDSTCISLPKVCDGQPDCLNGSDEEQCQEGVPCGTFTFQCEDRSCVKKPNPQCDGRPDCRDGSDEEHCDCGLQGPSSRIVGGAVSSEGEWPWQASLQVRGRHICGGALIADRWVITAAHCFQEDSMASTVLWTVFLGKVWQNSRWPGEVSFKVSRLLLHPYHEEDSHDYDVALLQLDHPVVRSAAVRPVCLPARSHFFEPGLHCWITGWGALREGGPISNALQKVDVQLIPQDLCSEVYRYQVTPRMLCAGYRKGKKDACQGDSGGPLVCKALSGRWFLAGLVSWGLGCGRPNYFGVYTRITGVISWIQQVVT

Read-outs that look alike come from different tables or passages of the source.

B1: NORI-006 (antibody, human IgG4 S228P, kappa, V domains shown)
VH: EVQLVESGGGLIKPGRSLRLSCTGSGFTFGDFGLSWFRQAPGKGLEWISFIRSKPYGGTTDYAASVKGRFTISRDDSKNVAYLQMNSLKTEDTAVYYCARNEILTGYYIFDYWGQGTLVTVSS
VL: DIQMTQSPSSLSASLGDRVTITCQASQDINNYLNWYQVQPGKAPKLLIFDASILETGVPSRFSGSGSGTDFSFTISSLQPEDIATYYCQQYDNLPLTFGGGTKVDFKR
notes: human IgG4PE, kappa
As to B1, the “Inhibition enzymatic activity human MTP2 protein (IC50)” value worked out at 8.8 nM in assay [1] and 1.26 nM in assay [3]. The entries for the “Inhibition enzymatic activity mouse MTP2 protein (IC50)” value in assay [2] and in assay [4] were 22.9 nM and 27.6 nM, respectively.

B2: NORI-003 (antibody, human IgG4 S228P, kappa, V domains shown)
VH: EVQLVESGGGLVKPGRSLRLSCTGSGFTFGDFGMSWFRQAPGKGLEWVGFIRSKPYGGTTDYAPSVRGRFSISRDDSKGIVYLQMNSLRTEDTAVYYCSRNEILTGYYIFDYWGQGTLVTVSS
VL: DIQMTQSPSSLSASLGDRVTITCQASHDITNYLIWYQQKPGKAPRLLIFDASILETGVPSRFSGSGSGTDFTFTISSLQPEDFATYYCQQYYNLPLTFGGGTKVDIKR
notes: human IgG4PE, kappa; NORI-002 with the free cysteine of the VH domain mutated (printed as 'C49C')
In the case of B2, the “Inhibition enzymatic activity human MTP2 protein (IC50)” value in assay [3] is 1.6 nM. Also, the “Inhibition enzymatic activity mouse MTP2 protein (IC50)” value in assay [4] came to 19 nM.

B3: NORI-008 (antibody, human IgG4 S228P, kappa, V domains shown)
VH: QVQLQESGPGLVKPSETLSLTCSVSGGSVSSGRYYWTWIRQPPGKGLEWIGYISNSGNTNYNPSLKSRVTISLDTSKKQFSLSLSAVTAADTAVYYCARGFIYDYWFDPWGQGSLVTVSS
VL: DSQMTQSPSSLSASVGDRVTITCQASQDIDNYLNWYQQRPGKAPKLLIYDASKLETGVPSRFSGSGSGTDFTFTISSLQPEDFATYYCQQYGNLPITFGQGTRLDIKR
notes: human IgG4PE, kappa, in the in vitro assays; a mouse IgG1 format was used in one in vivo study only; also called NORI-008 hulgG4PE; NORI-008 IgG
In the case of B3, the “Inhibition enzymatic activity human MTP2 protein (IC50)” value is 8.28 nM in assay [1] and 0.446 nM in assay [3]. For the same molecule, the “Inhibition enzymatic activity mouse MTP2 protein (IC50)” value in assay [2] is 1.5 nM; in assay [4] it was 0.757 nM. In addition, the “Inhibition enzymatic activity human MTP2 on cells (IC50)” value in assay [5] turned out to be 0.0839 nM.

B4: NORI-011 (antibody, human IgG4 S228P, lambda)
heavy: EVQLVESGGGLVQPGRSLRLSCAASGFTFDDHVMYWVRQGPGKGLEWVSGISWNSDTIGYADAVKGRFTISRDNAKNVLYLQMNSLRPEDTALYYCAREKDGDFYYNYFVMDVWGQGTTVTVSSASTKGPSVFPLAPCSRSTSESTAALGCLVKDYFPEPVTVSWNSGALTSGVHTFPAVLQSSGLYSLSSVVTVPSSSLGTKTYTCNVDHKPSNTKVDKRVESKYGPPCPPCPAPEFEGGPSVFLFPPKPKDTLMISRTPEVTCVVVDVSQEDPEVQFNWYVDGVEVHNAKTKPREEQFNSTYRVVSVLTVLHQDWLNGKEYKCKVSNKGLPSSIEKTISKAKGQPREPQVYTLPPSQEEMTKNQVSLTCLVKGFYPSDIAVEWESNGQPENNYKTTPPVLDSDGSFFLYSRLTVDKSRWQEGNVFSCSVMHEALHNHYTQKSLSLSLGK
light: QSALTQPPSASGSPGQSVTISCTGTSSDVGFYNFVSWYQQHPDKAPKVMIYEVSKRPSGVPDRFSGSKSGNTASLTVSGLQAEDEADYYCSSYAGSNKVVFGGGTKLTVLGQPKAAPSVTLFPPSSEELQANKATLVCLISDFYPGAVTVAWKADSSPVKAGVETTTPSKQSNNKYAASSYLSLTPEQWKSHRSYSCQVTHEGSTVEKTVAPTECS
notes: human IgG4PE, lambda; NORI-010 with a P124S mutation in the VH domain
On to B4, for which the “Inhibition enzymatic activity human MTP2 protein (IC50)” value in assay [3] is 11.4 nM. The “Inhibition enzymatic activity mouse MTP2 protein (IC50)” value in assay [4] was found to be 9.88 nM.

B5: NORI-013 (antibody, human IgG4 S228P, lambda, V domains shown)
VH: EVQLVESGGGLIQAGRSLRLSCAASGFTFDEHVIYWVRQIPGKGLEWISSISWKSDIIAYADSVKGRFTISRDNAKNALYLQMNSLRAEDTALYYCAREKDGDFYYYYFAMDVWGQGTTVTVSS
VL: QSALTQPPSASGSPGQSVTLSCTGTSSDVGYYNYVSWYLQHPGKAPKLMIYEVSKRPSGVPDRFSGSKSANTASLTVSGLQAEDEADYYCSSYAGSNKVVFGGGTKVTVLG
notes: human IgG4PE, lambda
Take B5: the “Inhibition enzymatic activity human MTP2 protein (IC50)” value in assay [1] turned out to be 5.63 nM. The “Inhibition enzymatic activity mouse MTP2 protein (IC50)” value in assay [2] is 3.59 nM. The “Inhibition enzymatic activity human MTP2 on cells (IC50)” value in assay [5] was 0.619 nM.

B6: NORI-014 (antibody, human IgG4 S228P, lambda, V domains shown)
VH: EVQLVESGGGLIQAGRSLRLSCAASGFTFDEHVMYWVRQIPGKGLEWISSITWKSDIIAYADSVKGRFTISRDNAKNALYLQMNSLRAEDTALYYCAREKDGDFYYYYFAMDVWGQGTTVTVSS
VL: QSALTQPPSASGSPGQSVTLSCTGTSSDVGYYNYVSWYLQHPGKAPKLMIYEVSKRPSGVPDRFSGSKSANTASLTVSGLQAEDEADYYCSSYAGSNKVVFGGGTKVTVLG
notes: human IgG4PE, lambda
With B6, the “Inhibition enzymatic activity human MTP2 protein (IC50)” value in assay [1] was determined as 11.8 nM. Moreover, the “Inhibition enzymatic activity mouse MTP2 protein (IC50)” value in assay [2] was found to be 8.5 nM. Moreover, in assay [5], the “Inhibition enzymatic activity human MTP2 on cells (IC50)” value was 0.532 nM.
